Biological target: SIVrcm integrase A119D (simian immunodeficiency virus from red-capped mangabeys (SIVrcm))
Experiment: cryo-EM structure

SIVrcm integrase A119D (enzyme)
stoichiometry N: 4
